The target of series [1] is T1, hRPA (replication protein A heterotrimer RPA1+RPA2+RPA3) (human (Homo sapiens), UniProt P27694;P15927;P35244 1-616;1-270;1-121). Kind of series: EMSA. Background: A gel shift assay detects complexes by their altered migration in electrophoresis.
Series [2] concerns the target T1, hRPA (replication protein A …). Kind of series: EMSA. The source holds these as a separate data set.

T1 sequence (P27694 whole entry, chain 1 of 3): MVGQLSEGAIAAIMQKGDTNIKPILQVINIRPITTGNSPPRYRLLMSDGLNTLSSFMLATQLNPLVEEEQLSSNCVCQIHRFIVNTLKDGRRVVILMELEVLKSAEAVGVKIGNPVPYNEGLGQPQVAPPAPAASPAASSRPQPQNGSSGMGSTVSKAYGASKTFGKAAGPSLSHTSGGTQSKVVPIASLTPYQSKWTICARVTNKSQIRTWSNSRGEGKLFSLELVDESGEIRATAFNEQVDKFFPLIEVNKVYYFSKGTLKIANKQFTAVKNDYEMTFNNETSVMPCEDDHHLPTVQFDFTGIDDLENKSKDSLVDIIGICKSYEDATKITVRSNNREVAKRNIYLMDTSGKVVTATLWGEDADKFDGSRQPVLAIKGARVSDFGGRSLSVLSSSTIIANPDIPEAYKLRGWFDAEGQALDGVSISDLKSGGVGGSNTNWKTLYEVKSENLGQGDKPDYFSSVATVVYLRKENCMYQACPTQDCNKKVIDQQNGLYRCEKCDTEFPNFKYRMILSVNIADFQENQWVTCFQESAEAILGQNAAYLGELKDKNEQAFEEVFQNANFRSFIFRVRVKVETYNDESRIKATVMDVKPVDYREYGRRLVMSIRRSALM
T1 sequence (P15927 whole entry, chain 2 of 3): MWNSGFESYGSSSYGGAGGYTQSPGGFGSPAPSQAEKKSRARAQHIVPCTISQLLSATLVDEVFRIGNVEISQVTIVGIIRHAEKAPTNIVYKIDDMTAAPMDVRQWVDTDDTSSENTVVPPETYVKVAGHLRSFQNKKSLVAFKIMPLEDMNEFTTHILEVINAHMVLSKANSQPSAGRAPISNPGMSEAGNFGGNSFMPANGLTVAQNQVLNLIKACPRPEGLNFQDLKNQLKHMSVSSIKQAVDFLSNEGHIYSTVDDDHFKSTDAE
T1 sequence (P35244 whole entry, chain 3 of 3): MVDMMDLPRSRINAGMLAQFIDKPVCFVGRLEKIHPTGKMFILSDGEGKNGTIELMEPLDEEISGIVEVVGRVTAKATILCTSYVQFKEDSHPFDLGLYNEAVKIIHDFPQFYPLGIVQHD

Consider TTTTTTTTTTTTTTTTTTTTTTTTTTTTTTT (ssDNA) [poly(dT)31], for which the binding signal in series [1] was ~10 fold higher affinity than Oligo 31. For the molecule GATCTCGGCGACGCACACGCGTCCTAACTCG (ssDNA) [Oligo 31], in series [2], the binding result was “binds”.

The values above are taken from article PMC2615627.
